According to patent US12472269B2, “Liver-specific inducible promoters and methods of use thereof” (ASKBIO INC., priority 2019, dated 2025):

Tested on: AXOL ARE hepatocytes
Assay: Luciferase expression from pAAV constructs in AXOL ARE hepatocytes without CITCO, with CITCO and after CITCO withdrawal
Format: cell-based, human
Conditions: pAAV vector
Protocol: Luciferase expression from the PB1-MinTK and PB1-2-MinTK constructs in the pAAV vector in AXOL ARE hepatocytes is inducible by CITCO (1 μM) but reduces after removing CITCO as shown in FIG. 5.

B1: PB1-MinTK: promoter: single mouse PBREM element and MinTK minimal promoter, SEQ ID NO: 7 (nucleic acid)
DNA: TCTGTACTTTCCTGACCTTGGCACAGTGCCACCATCAACTTGCCTGACACCGATCCGGCCCCGCCCAGCGTCTTGTCATTGGCGAATTCGAACACGCAGATGCAGTCGGGGCGGCGCGGTCCGAGGTCCACTTCGCATATTAAGGTGACGCGTGTGGCCTCGAACACCGAGCGACCCTGCAGCGACCCGCTTAACAGCGTCAACAGCGTGCCGCAGATCTCGAGGAGCTTGGCGAGATTTTCAGGAGCTAAGGAAGCTAAAC
modifications: PB1-MinTK
Q: For B1, which “luciferase expression with CITCO” value (CITCO (1 μM)) is on record?
A: The value was “inducible”.

Q: What about the “activity of the promoter after removal of CITCO” value (CITCO withdrawal) of the same molecule?
A: Its value is “almost baseline levels”.
